Among the data in the Immune Epitope Database (IEDB) are Kd values, retold here.

The target in assay [1] is HLA-B*15:03. The assay is described as follows: IEDB peptide-MHC binding, purified MHC/competitive/radioactivity; filed as Kd, often an IC50 or EC50 that approximates it; ≥ and ≤ were set here for values at or beyond the usual limits of such assays.
The target of assay [2] is HLA-A*26:01. The assay is described as follows: IEDB peptide-MHC binding, purified MHC/competitive/fluorescence; filed as Kd, often an IC50 or EC50 that approximates it; ≥ and ≤ were set here for values at or beyond the usual limits of such assays.
Assay [3] deals with HLA-B*46:01. The description is as above. As to conditions: source organism: Clostridium botulinum B str. Eklund 17B (NRP).
Assay [4] concerns the target HLA-B*08:01. The assay is described as follows: IEDB peptide-MHC binding, purified MHC/competitive/radioactivity; filed as Kd, often an IC50 or EC50 that approximates it; ≥ and ≤ were set here for values at or beyond the usual limits of such assays.
In assay [5] the target is HLA-B*15:01. Described as above.
Assay [6] has as its target HLA-A*03:01. The assay is described as follows: IEDB peptide-MHC binding, purified MHC/competitive/fluorescence; filed as Kd, often an IC50 or EC50 that approximates it; ≥ and ≤ were set here for values at or beyond the usual limits of such assays.
Assay [7] deals with HLA-A*31:01. The assay is described as above.
Assay [8] addresses HLA-A*32:01. The assay is described as follows: IEDB peptide-MHC binding, purified MHC/competitive/radioactivity; filed as Kd, often an IC50 or EC50 that approximates it; ≥ and ≤ were set here for values at or beyond the usual limits of such assays.
Assay [9] deals with HLA-A*30:01. Described as above. The following applies: source organism: Vaccinia virus WR.
The target of assay [10] is HLA-B*51:01. As to the kind of experiment: IEDB peptide-MHC binding, purified MHC/competitive/fluorescence; filed as Kd, often an IC50 or EC50 that approximates it; ≥ and ≤ were set here for values at or beyond the usual limits of such assays. The following applies: source organism: Yersinia pestis Nepal516.
Assay [11] deals with HLA-A*02:06. The assay is described as follows: IEDB peptide-MHC binding, purified MHC/competitive/radioactivity; filed as Kd, often an IC50 or EC50 that approximates it; ≥ and ≤ were set here for values at or beyond the usual limits of such assays. The following applies: source organism: Vaccinia virus WR.
Assay [12] has as its target HLA-A*02:02. Described as above. As to conditions: source organism: Vaccinia virus WR.
The target of assay [13] is HLA-A*68:01. Described as above. The following applies: source organism: Vaccinia virus WR.
In assay [14] the target is HLA-A*02:01. The assay is described as above. As to conditions: source organism: Vaccinia virus WR.
The target of assay [15] is HLA-A*03:01. The assay is described as above. As to conditions: source organism: Vaccinia virus WR.
The target of assay [16] is HLA-A*68:02. Described as above. The following applies: source organism: Vaccinia virus WR.
In assay [17] the target is HLA-A*02:03. The description is as above. The following applies: source organism: Vaccinia virus WR.
The target in assay [18] is HLA-A*33:01. The assay is described as above. The following applies: source organism: Vaccinia virus WR.
For assay [19], the target named is HLA-A*11:01. The description is as above. The following applies: source organism: Vaccinia virus WR.
Assay [20] addresses HLA-A*31:01. Described as above. As to conditions: source organism: Vaccinia virus WR.
The target of assay [21] is HLA-B*07:02. The assay is described as above. The following applies: source organism: Vaccinia virus WR.
Assay [22] concerns the target HLA-B*54:01. The description is as above. The following applies: source organism: Vaccinia virus WR.
Assay [23] has as its target HLA-B*35:01. Described as above. As to conditions: source organism: Vaccinia virus WR.
The target in assay [24] is HLA-B*53:01. The description is as above. The following applies: source organism: Vaccinia virus WR.
Assay [25] addresses HLA-B*51:01. Described as above. The following applies: source organism: Vaccinia virus WR.
In assay [26] the target is HLA-A*03:01. As to the kind of experiment: IEDB peptide-MHC binding, purified MHC/direct/fluorescence; filed as Kd, often an IC50 or EC50 that approximates it; ≥ and ≤ were set here for values at or beyond the usual limits of such assays.
The target in assay [27] is HLA-A*11:01. The description is as above.
The target of assay [28] is HLA-A*30:02. The assay is described as follows: IEDB peptide-MHC binding, purified MHC/competitive/radioactivity; filed as Kd, often an IC50 or EC50 that approximates it; ≥ and ≤ were set here for values at or beyond the usual limits of such assays. The following applies: source organism: Dengue virus 1 Brazil/97-11/1997.
The target of assay [29] is HLA-A*24:02. The assay is described as above. The following applies: source organism: Dengue virus 4 Philippines/H241/1956.
The mark [30] stands for this setting: source organism: Vaccinia virus WR.
The mark [31] stands for this setting: source organism: Escherichia coli 101-1.
[32] abbreviates: source organism: Vaccinia virus Copenhagen.
Setting [33] is: source organism: Dengue virus 2 Peru/IQT2913/1996.
Setting [34] is: source organism: Mycobacterium tuberculosis.
The mark [35] stands for this setting: source organism: Dengue virus 1 Brazil/97-11/1997.
Where [36] appears, read: source organism: Escherichia coli O157:H7.
The mark [37] stands for this setting: source organism: Yellow fever virus.
Setting [38] is: source organism: West Nile virus.
Setting [39] is: source organism: Dengue virus 4 Philippines/H241/1956.
Where [40] appears, read: source organism: Escherichia coli 536.

By Kd is commonly meant the concentration at which binding is half-saturated.

For the sequence AANCFGQHV, in assay [1] (setting [30]), the Kd was 21.8 nM.

Regarding AVVRFRTHF, the Kd in assay [1] (setting [30]) came to 191 nM.

With DVADLFPAQ, the Kd in assay [2] (source organism: Mammarenavirus lassaense) was determined as 1780 nM.

As for FFKDGMAEV, the Kd in assay [3] worked out at 398 nM.

As for FKVLDGSPI, the Kd in assay [1] (setting [30]) amounted to 0.822 nM.

With FMASPENVI, in assay [1] (setting [30]), the Kd turned out to be 6.38 nM.

As for FQSMHFTDM, the Kd in assay [1] (setting [30]) worked out at 5.12 nM; in assay [4] (setting [30]), 84.4 nM.

For the sequence GLYCYFTHL, the Kd in assay [5] (setting [30]) worked out at 6.87 nM.

With GVFYRPLHF, the Kd in assay [5] (setting [30]) amounted to 5.54 nM.

In the case of HTFTAPIAK, the Kd in assay [6] (setting [31]) stood at 112 nM; in assay [7] (setting [31]), 19.1 nM.

As to IISSSTLYF, the Kd in assay [5] (setting [32]) amounted to 1.06 nM.

As for ISTKLSCHY, the Kd in [5] (setting [30]) turned out to be 17.5 nM.

As for KMTRVFNKF, the Kd in assay [1] (setting [30]) came out at 0.431 nM; in assay [8] (setting [30]), 10600 nM; in assay [4] (setting [30]), 10600 nM; in [9], 15100 nM; in assay [5] (setting [30]), 7560 nM.

For the sequence KMYACKNDM, in assay [1] (setting [30]), the Kd came out at 42.9 nM.

Take LIRPKILSM: the Kd stood at 0.548 nM in assay [4] (setting [30]) and 10.4 nM in [5] (setting [30]).

Regarding LLCKLSCAV, the Kd in assay [5] (setting [30]) came out at 416 nM.

LLKICIKYF: the Kd in [5] (setting [30]) amounted to 5230 nM.

Take LLSRFFNMI: the Kd was found to be 821 nM in [1] (setting [30]), 714 nM in [8] (setting [30]) and 1640 nM in assay [4] (setting [30]).

Consider LMVSGPNVV, for which the Kd in [1] (setting [30]) came out at 3.8 nM.

In turn, LPFVWAPMV registered a Kd in assay [10] of 39.9 nM.

Consider LPRPDTRHL, for which the Kd in assay [11] is 18400 nM; in [12] it was at least 77800 nM; in assay [13] it was at least 77700 nM; in assay [14], at least 78100 nM; in assay [15], at least 58200 nM; in [16] it was at least 76900 nM. The Kd in assay [17] was at least 78100 nM; in [18], at least 77700 nM; in assay [19] it was at least 77900 nM; in assay [20], at least 77900 nM.

With MKYCSYQSF, in assay [1] (setting [30]), the Kd is 1.55 nM.

NTIRNAASF: the Kd in assay [2] (source organism: Bacillus thuringiensis serovar israelensis ATCC 35646) stood at 73.5 nM.

On to NTYLFNILY, for which the Kd in [11] was 6110 nM; in [12], 1570 nM; in [21], at least 29200 nM; in [13], 722 nM; in [22], 1430 nM; in [23], 10500 nM. For the same sequence, the Kd in [14] was found to be 946 nM; in [24], 5690 nM; in assay [15], 625 nM; in [16] it was 7350 nM; in assay [17], 1550 nM; in assay [18] it was 1480 nM. Besides, the Kd stood at 263 nM in [19], 688 nM in [20] and 17700 nM in assay [25].

As for RKYGCGNMF, in assay [1] (setting [30]), the Kd is 1.25 nM.

As to RLYSIFLIF, the Kd in [1] (setting [32]) was 0.158 nM; in assay [8] (setting [32]), 6.87 nM; in [4] (setting [32]), 15700 nM; in assay [5] (setting [32]), 3.35 nM.

Regarding RQMEGEGVF, the figures for the Kd in [8] (setting [33]) and in assay [5] (setting [33]) were 429 nM and 4.86 nM, respectively.

As to RSADGSPPY, the Kd in assay [7] (source organism: Mycobacterium tuberculosis variant bovis BCG str. Pasteur 1173P2) was at least 20000 nM; in assay [26] (setting [34]), 2500 nM; in [27] (setting [34]), 25.7 nM.

Regarding RSQVGVGVF, the Kd in [5] (setting [35]) turned out to be 26 nM.

As for RVIYPANQK, the Kd in assay [7] (source organism: Escherichia coli O157:H7 str. Sakai) is 72.2 nM; in [26] (setting [36]), 35 nM; in assay [27] (setting [36]), 6.9 nM.

For the sequence SLNTSTLGF, the results for the Kd in [1] (setting [32]), in assay [8] (setting [32]) and in assay [5] (setting [32]) were 13.1 nM, 416 nM and 1.67 nM, respectively.

SPVMSGNSY: in assay [1] (setting [30]), the Kd worked out at 363 nM.

As for SSMKGENVF, the Kd in assay [1] (setting [30]) amounted to 47 nM.

For the sequence TINAVASRK, the Kd in [7] (setting [37]) is 801 nM; in assay [27] (setting [37]) it was 4.3 nM.

For the sequence TLNHVLALK, the Kd in [11] is 14100 nM; in [12], at least 77800 nM; in assay [21] it was at least 77500 nM; in assay [13], 4.17 nM; in assay [22], at least 78100 nM; in assay [23], 10400 nM. The Kd in assay [14] was at least 78100 nM; in assay [24] it was at least 78200 nM; in assay [15], 2.47 nM; in assay [16] it was at least 76900 nM; in assay [17], 281 nM; in assay [18], 656 nM. Moreover, the Kd in assay [19] was 1.28 nM; in [20] it was 36.1 nM; in assay [25], at least 77500 nM.

Regarding TMAHRKPTY, the Kd in assay [28] amounted to 2060 nM; in [5] (setting [35]) it was 144 nM.

For VIGFLALAK, the Kd was at least 20000 nM in assay [7] (source organism: Orthohantavirus dobravaense), 232 nM in assay [26] (source organism: Amur virus) and 12.6 nM in assay [27] (source organism: Amur virus).

For VLALLAFFR, the Kd in assay [6] (setting [38]) was 160 nM; in assay [7] (setting [38]) it was 1080 nM.

With VMKRYSAPF, the Kd was 994 nM in assay [29], 8.98 nM in assay [4] (setting [39]) and 10.2 nM in assay [5] (setting [39]).

Regarding VTVVAVPLR, the values for the Kd in [6] (setting [40]) and in assay [7] (setting [40]) were at least 20000 nM and 107 nM, respectively.

Turning to YLFNAIETM, the Kd in assay [5] (setting [30]) amounted to 1.41 nM.

Regarding YLHYYRIIR, the Kd in assay [7] (source organism: Mycobacterium tuberculosis H37Rv) was 245 nM; in assay [26] (setting [34]) it was at least 20000 nM.
